Test results from a protein production outcome set (Wang et al. 2014).

experiment: label from the status in PepcDB records
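Also: failed if final PepcDB status was selected cloned or expressed and not failed if soluble or beyond.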

Sequence	protein production
MRQYMRTFLLVAVIFVFGFSIRMLNAGYDDPLYTDDDGLQYFQESDSYYNYRLTENLAIRGIPGDAVIGGKIWDLHSYYPPGVPLDYPAGILLLAVILHAITGVIAPVSLRAVCLIMPPLLAPLAGVICFFTVKRFQGDIPAFIAGLLLVSAPFYLVKTVYGLYDTDMLILTLSMAVLFLFIEADAREVNRVPLSAIGGFILFLFSITWSGWQVMFYVTLVTFIILILTSGSRKPLRNILGNIPTGLHGSVYPFNLFNHLELIKLIMTPLHIHDLVDKSIWYPWPDSYTTVAELQPAYMDKVLGHISPALTVLGAAGIPAYYMLYRRKGSVGLPVIFISVWIATGALMLLEGIRFVMILIAPLSVSAGIFTGILLDCSRKFRFRWIKGVLFILIIFTVSAQLAISGNMVADLKPGYNDYFEESAHWIAENTPSDAVIITEWSYGHFYASEADRPVVYDGRLAYIETLPARGVWYGSSMDPEIPTTARDYWINLSLSSENRTLSLNILRMLANSGDDAYILLKNQTGSEVQAYRIMNEILGLNRESAMDVLMHRYGFSESEALRILNMTHPMTSRKIVVVVPEKMIGLIASKGDSGDMPAGTYSLIRLKDDVIEEEIINSSGNVTVLETTDGSYRINRKYRKSLLLELIMGVNDENFSLVYRNKQIKVYIINS	failed
MRQYPRWYYDEFKQSGADYADIEEVNTYDLRMQNLRNIENESNRIRELLKLKKSDVVLEIGTGTGELALNISAHCKQVIAIDVSKMMINFARRKAESQNKTNIQFYNAGFLTYENHDELFDVIVTQLALHHLPDYWKMMALRRIYGMLKEEGKFYLHDVVFPSSIQNYDSYFDKIITDLEISAGDKIAEETEIHIKEEFSTLDWVMEGLLTGVGFYIEYIKYDGFMASYICKK	failed
MRRAAGKPRARRNTACHAAGILKKYPSVSALGCTFHDARQTSRCDENDKTNETMSSALLLVPDFSLILIGWLLVRYTPFDRGFWAGVERLVYFVLFPALLLQSTNSAKFDFSSTSAMLGLALLTMVFGMATGYLVKWVLRPAPADFASGLQTAFRFNSYIGLALAARLGNGEGLALMALVVGVTVPLCNVVAVWALAKHGEARVLRELVRNPLILATATGLVTNLLGLHPPEVVAMTLNRLGSASTALGLMTVGAGLQMSGATGTAGPMAWWSGVKLLAMPCFAWLVGKYLPLTPLQYQIVVVYASLPTASSSYILAVRMGGNGPMVAATISAMTVVAIVTTPVWLSLVS	failed
MRRCFSKITDCHLGFKNSNFLLVGSEVGSGSVTRTITTTTSERLFSSSYAAHQVDQIKDNPVSDMLIDKFGRLHTYLRISLTERCNLRCQYCMPSEGVELTPKPQLLSQSEIVRLAGLFVSAGVNKIRLTGGEPTVRKDIEEICLQLSSLKGLKNLAITTNGITLAKKLPRLKECGLDSLNISLDTLVPAKFEFLTRRKGHDRVMKSIDTAIELGYNPVKVNCVIMRGLNDDEICDFVELTRDKPINVRFIEFMPFDGNVWNVKKLVPYAEVMDKVVKRFPSIKRMQDHPTETAKNFTIDGHCGSVSFITSMTEHFCAGCNRLRLLADGNFKVCLFGPSEVSLRDPLRSGADDEALREIIGAAVKRKKAAHAGMLDIAKTANRPMIHIGG	failed
MRRFLAGLWLLGLALGQGLVLPFEGPKGYGLAQAFAQGLKAPPPTLLALLLPDLPWRGSYELAGGLYTKAGARLARAATGADWVLLGREEEGGLRLILAREGGSEERLFKTPELAWLWLQGKGLAPRLSPLPTPGLPEERLRALAQGEAPDPLHRSALDLKEGRGSGLLEGLLPERLLLLWQGKLPRAYEAFRLLAEGKREEALALAEAMEEGDVLERTAAHLLFRALEDERWKASARRLAEAFPELSLAWEEVSFAAFQEGKGEEAKEALLKALALRPDYWLYWTNLGWAYYLTGDLPRAIQASERAVALSPNATAYYNLGLFKAIYGDFLGAKAAYDRALRLDQGEDYPEALKDLEEREEPLALFFRAYLAERTGLEAEPLYRAFLEAYPRHPAAFAARRALATLKAGGLSLEVERLTLVPGGPDARPFRAGEAIFPEVRLEGRPYLRQASLFTALYREGRKVAEEEKPVGFPPLTVALLEVAPPVVPEAPGRYRLEVRYAEARAVLDLEVGAPSLARRLFALGLEVRDLSGRPLLTPKEALGEDGERLLLERAREALMEAAPLATTERLTQPLEKGPVAGRSVQEVLRDPDPEILRAFFQAVLENPERLAETDVVNAFVNWLLEP	failed
MRRLKRDPLERAFLRGYQNGITGKSRDLCPFTHPTTRQSWLNGWREGRGDNWDGLTGTAGLQRLNQLQHVLEHHHHHH	failed
MRRLLFLSLAGLWLFSPAAAAQLPGLISQPLAGGGQSWSLSVQTLVFITSLTFLPAILLMMTSFTRIIIVFGLLRNALGTPSAPPNQVLLGLALFLTFFIMSPVIDKIYVDAYQPFSEQKISMQEALDKGAQPLRAFMLRQTREADLALFARLANSGPLQGPEAVPMRILLPAYVTSELKTAFQIGFTIFIPFLIIDLVIASVLMALGMMMVPPATIALPFKLMLFVLVDGWQLLMGSLAQSFYS	failed
MRRNRPGARHCPAFSGYPDPGFPRGSRRSGSSRRGKSRIMDWLKSLPGIGPLIARLMTTHAWRSYERLDRVKWTQLAAAMTFISFVALFPLLTVAAAIGAAALSEEQQKTLQDKLAEQVPGISDQLDIHALVQNAGTVGVIAGAVLLFTGIGWVGAMRDCLRAVWELDDDEENPFLRKLKDGGVLLGLGGAVLVTLATSTVASAMVGWTADRLGIERDGWGSVLLHITAFLVAVLADFLLLLYVLTLLPGVEPTRRRLVVAALIGAVGFELLKLLLSGYIQGVASKSMYGAFGVPVALLLWINFTSKLLLFCAAWTATPSDGPAEEEVSGASDDVPDRAAASGG	failed
MRRPVSKWALLALLFTALLAADQWTKYLAVERLTVVFERGGDETLAERVRGFYTYRHLEPLSTEPYYVWRPVWRMNYVENPGAAWGLFRGHSQFFRNAFFTLVSVAAVAFILHYYRKLRQDQRYLQVALGLVLAGAVGNFVDRLARRYVIDFIEWYWWNRPDIRWPTFNVADSLIVVGVAMLVLHPGSRREAARAPARRDAAAERV	failed
MRRQELARQCGERSKKDNKKGSAKAKKMEQMRNESRASTPSKDSNTSQSTASSTPTTSAGPGSKSEAGSTGTTTTNSTANSTTSRAHRKSTQSTPSTARPGTPSDKKEDPAAAETTEEEGPVAPKKKRMSEQRPSLTGSDVAEKPLPPTT	failed
MRRQTMVKAGAVACAVALLGSLSACGGSKKSTTTADGKPIVTVLVKKNANQEKMANMQWAKDLEADCDCKIEWQEVTREAWAQQKNATLASGDIADVNLNGYGAVEAYQYPGMFEDLSKDLDKLPNVKAFFKQKPDAKKMSTDSKGRIYAIADGRGKAYSGTGQHMLINKAWLDKLGLQVPTTWDELENVLKAFKTQDPNGNGQADEIPMNIKKLEGSYFTWYSPMLLLNSTGIVTGFNKGVSEYGFYAKNGVVKSFLTSDEYKEVIKYYHKLISEGLIPAEWATKDDDAYNADQISDGKTAKTGVVFGWSPSDNFGKLKDQYIAMPVPSAPGVSPDQTVWDGSSSELSPAGLSISSHAANKDAALKLANLLYSEKYSVQQFLGSFGKAITKTGEHEYTVDNDKLSQLTGDNQYPGLSELLVGWIPDEATIKGDTHADELIEVNKVYEEQRSHFDPVKDYIPDYVNMDNMDPSDATKLNTNNAEIFNTTMQKTATWMSKGGIDEEWDAYCKQLDSIGLQESTKIWQKWYDTYTK	not failed
MRRRDPSRKMILRMSHVVRRLRPDGIVELRPRDVRVERPEWYLGAYTTFLVSGALFISTAVPAQLVAITFLGCLLGEVCFGLRALVALRRPLAEVEVLAPMRRVR	failed
MRRRWYNNGGFQTLRMLEESSSEVTSSSALGLPPAMVMSPESLASPEYGGLELWGYDDGITYSMAQSLGTCTMEQQQPQPQQQPQQTQPLPSMPLPMPPTTPKSENESMSSGREELSPASSVNGCSTDGEARRQKKGPAPRQQEELCLVCGDRASGYHYNALTCEGCKGFFRRSVTKNAVYICKFGHACEMDMYMRRKCQECRLKKCLAVGMRPECVVPENQCAMKRKEKKAQREKDKLPVSTTTVDDHMPPIMQCDPPPPEAARIHEVVPRFLNEKLMEQNRLKNVPPLTANQKSLIARLVWYQEGYEQPSEEDLKRVTQTWQSDEDDEDSDMPFRQITEMTILTVQLIVEFAKGLPGFAKISQSDQITLLKACSSEVMMLRVARRYDAATDSVLFANNQAYTRDNYRKAGMAYVIEDLLHFCRCMYSMMMDNVHYALLTAIVIFSDRPGLEQPLLVEEIQRYYLNTLRVYILNQNSASPRCAVIFGKILGILTEIRTLGMQNSNMCISLKLKNRKLPPFLEEIWDVADVATTATPVAAEAPAPLAPAPPARPPATV	not failed
MRRSKYFTPNEVSLHNTINDIWVSYLGKVYDLTPLLEAYKGDVLLKPIIECAGKDISHWFDPKTKDILTHVDPLTGCIKYYTPRGRFIHIPPPCPRTDWANNFGKPWWKDNRYEVGLLSAKTRWIRIINTLTSQEQKLEVCSEESLDEILHRYLFYNSHAASYTWKLSGINLDMSKTLSENGIPEEDEFYCGSPDCNLFSPSICLYFNDDLTEL	failed
MRRTPRKATAAGALMAATAFLTVGIQAVPATAKPAAPHPSPLRTGGQEAKLTPAQHSALLKSAAKKTTTTAATLGLGAKEKLVVRDVVKDNDGTLHTRYERTWAGLPVLGGDVVVHTPPASLAAGTVSSTFNNKRTIKVASTTASFTRSAAVTKALKAAKDLAAEKATTDSARKVIWAGSGAPKLAWETVIGGLQDDGTPSQLHVITDATTGKELYRYQGVKTGTGNTQYSGTVSLSTTLSGSTYQLYDTTRGGHKTYSLNNGTSGTGTLMTDADDTWGTGSGSNTQTAGADAAYGAQTTWDFYKNTFGRSGIKNDGVAAYSRVHYSTAYVNAFWDDDCFCMTYGDGTSSTHALTSLDVAGHEMSHGVTSNTAGLNYTGESGGLNEATSDIFGTGVEFYAANSSDVGDYLIGEKIDINGDGTPLRYMDEPDKDGGSADSWYSGVGNLDVHYSSGPANHMFYLLSEGSGSKTINGVTYNSPTSDGVAVAGIGRAAALQIWYKALTTYMTSSTNYAGARTAALNAATALYGASSTQYAGVANAFAGINVGSHVTPPTSGVTVTNPGSQSSTVGTAVSLQVSASSTNSGSLTYAATGLPTGLSVNSSTGVISGTPTTAGTYSTTVTVTDSTGATGTASFTWTVSSSGGGGTCASTQLLGNPGFESGNTTWTASSGVITNSSSEAAHAGSYKAWLDGYGSTHTDTLSQSVTIPSGCKASLTFYLHIDTAETTTSTQYDKLTVTAGSTTLATYSNLNAASGYTQKTFDLSSLAGTTVALKFSGVEDSSLQTSFVIDDTALTTS	failed
MRSDVVARAMRLIADGTVDRDGVSGLAAQLGYTIRQLERLLQAVVGAGPLALARAQRMQTARVLIETTNLPFGDVAFAAGFSSIRQFNDTVRLACDGTPTALRARAAARFESATASAGTVSLRLPVRAPFAFEGVFGHLAATAVPGCEEVRDGAYRRTLRLPWGNGIVSLTPAPDHVRCLLVLDDFRDLMTATARCRRLLDLDADPEAIVEALGADPDLRAVVGKAPGQRIPRTVDEAEFAVRAVLAQQVSTKAASTHAGRLVAAYGRPVHDRHGALTHTFPSIEQLAEIDPGHLAVPKARQRTINALVASLADKSLVLDAGCDWQRARGQLLALPGVGPWTAEVIAMRGLGDPDAFPASDLGLRLAAKKLGLPAQRRALTVHSARWRPWRSYATQHLWTTLEHPVNQWPPQEKIALEHHHHHH	failed
MRSKFVLFMLMSLLTGSLMANSEAQIYGYVEKATLIDQNLTLSAKLDTGAKSASLHAVNITEIEKKGIPYLRFTVPTKTGDYSFEGEYVGKVKIKVRSSETNPGLLRTTPIKRPVVLLNIKLGDKVRTIKVNLTNRKRFLYPLLLGRDAIIDFNGAVDPALTFTTKSKSPVNNEK	failed
